Drawing on paper PMC6370916, this text covers Kd and other: Bmax for two molecules.

Substitutions are numbered along the chain they refer to. Names and notes keep the numbering of the source.

The experiment deals with T1, recombinant human SEMA3C Fc chimera, Q99985.
T1 chain: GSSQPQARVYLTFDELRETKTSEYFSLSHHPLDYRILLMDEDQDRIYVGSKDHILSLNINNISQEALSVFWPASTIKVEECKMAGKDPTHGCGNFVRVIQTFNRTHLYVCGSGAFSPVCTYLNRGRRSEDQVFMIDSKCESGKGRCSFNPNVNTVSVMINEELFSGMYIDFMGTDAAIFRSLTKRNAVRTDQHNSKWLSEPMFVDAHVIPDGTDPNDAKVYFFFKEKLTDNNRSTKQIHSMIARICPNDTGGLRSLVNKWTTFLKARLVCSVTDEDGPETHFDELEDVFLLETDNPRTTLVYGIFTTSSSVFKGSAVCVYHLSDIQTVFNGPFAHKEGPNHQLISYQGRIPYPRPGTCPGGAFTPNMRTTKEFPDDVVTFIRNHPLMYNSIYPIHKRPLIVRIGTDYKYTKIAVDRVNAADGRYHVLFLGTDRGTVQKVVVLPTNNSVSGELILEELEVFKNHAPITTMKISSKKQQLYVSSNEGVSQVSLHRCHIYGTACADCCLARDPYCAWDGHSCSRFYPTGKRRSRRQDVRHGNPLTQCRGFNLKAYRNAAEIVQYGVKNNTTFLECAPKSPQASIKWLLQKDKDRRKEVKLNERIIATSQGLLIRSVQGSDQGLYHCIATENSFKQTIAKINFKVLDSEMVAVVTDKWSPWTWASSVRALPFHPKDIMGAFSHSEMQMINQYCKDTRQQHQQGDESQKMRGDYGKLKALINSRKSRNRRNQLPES
Kind of experiment: Saturation receptor-ligand binding assay. To be noted: chain shown with the change, SEMA3C 0-10 nM, read-out O.D. 450 nm.

[1] abbreviates: NRP2 co-expressed with WT PLXNA1, parent: 0.63 nM.
The mark [2] stands for this setting: NRP2 co-expressed with WT PLXNA1, parent: 0.65.
The mark [3] stands for this setting: NRP2 co-expressed with WT PLXNA2, parent: 0.89 nM.
Where [4] appears, read: NRP2 co-expressed with WT PLXNA2, parent: 0.60.
Setting [5] is: NRP2 co-expressed with WT PLXNA3, parent: 0.93 nM.
The mark [6] stands for this setting: NRP2 co-expressed with WT PLXNA3, parent: 0.54.
The mark [7] stands for this setting: NRP2 co-expressed with WT PLXNA4, parent: 1.03 nM.
Where [8] appears, read: NRP2 co-expressed with WT PLXNA4, parent: 0.65.
[9] abbreviates: cells expressing NRP2 alone (no PLXNA co-expressed), parent: 0.81 nM.
Where [10] appears, read: cells expressing NRP2 alone (no PLXNA co-expressed), parent: 0.89.

B1: human Neuropilin 2, wild type, O60462 A506V (protein)
chain: RGQPDPPCGGRLNSKDAGYITSPGYPQDYPSHQNCEWIVYAPEPNQKIVLNFNPHFEIEKHDCKYDFIEIRDGDSESADLLGKHCGNIAPPTIISSGSMLYIKFTSDYARQGAGFSLRYEIFKTGSEDCSKNFTSPNGTIESPGFPEKYPHNLDCTFTILAKPKMEIILQFLIFDLEHDPLQVGEGDCKYDWLDIWDGIPHVGPLIGKYCGTKTPSELRSSTGILSLTFHTDMAVAKDGFSARYYLVHQEPLENFQCNVPLGMESGRIANEQISASSTYSDGRWTPQQSRLHGDDNGWTPNLDSNKEYLQVDLRFLTMLTAIATQGAISRETQNGYYVKSYKLEVSTNGEDWMVYRHGKNHKVFQANNDATEVVLNKLHAPLLTRFVRIRPQTWHSGIALRLELFGCRVTDAPCSNMLGMLSGLIADSQISASSTQEYLWSPSAARLVSSRSGWFPRIPQAQPGEEWLQVDLGTPKTVKGVIIQGVRGGDSITAVEARAFVRKFKVSYSLNGKDWEYIQDPRTQQPKLFEGNMHYDTPDIRRFDPIPAQYVRVYPERWSPAGIGMRLEVLGCDWTDSKPTVETLGPTVKSEETTTPYPTEEEATECGENCSFEDDKDLQLPSGFNCNFDFLEEPCGWMYDHAKWLRTTWASSSSPNDRTFPDDRNFLRLQSDSQREGQYARLISPPVHLPRSPVCMEFQYQATGGRGVALQVVREASQESKLLWVIREDQGGEWKHGRIILPSYDMEYQIVFEGVIGKGRSGEIAIDDIRISTDVPLENCMEPISAFAGENFKVDIPEIHEREGYEDEIDDEYEVDWSNSSSATSGSGAPSTDKEKSWLYTLDPILITIIAMSSLGVLLGATCAGLLLYCTCSYSGLSSRSCTTLENYNFELYDGLKHKVKMNHQKCCSEA
As to B1, the Kd under setting [1] is 0.67 nM; the Kd under setting [3] came out at 1 nM; the Kd under setting [5] is 1.12 nM; the Kd under setting [7] came out at 1.25 nM; the Kd under setting [9] is 0.73 nM. Also, the other: Bmax runs as follows: under setting [2], 0.55 O.D. 450 nm; under setting [4], 0.52 O.D. 450 nm; under setting [6], 0.42 O.D. 450 nm; under setting [8], 0.55 O.D. 450 nm; under setting [10], 0.84 O.D. 450 nm.

B2: human Neuropilin 2, wild type, O60462 V573L (protein)
chain: B1 chain with V486A, V553L
For B2, the dissociation constant (Kd) runs as follows: under setting [1], 0.68 nM; under setting [3], 1.01 nM; under setting [5], 1.18 nM; under setting [7], 1.07 nM; under setting [9], 0.83 nM. For the same molecule, the other: Bmax is 0.66 O.D. 450 nm under setting [2]; 0.67 O.D. 450 nm under setting [4]; 0.52 O.D. 450 nm under setting [6]; 0.59 O.D. 450 nm under setting [8]; 0.93 O.D. 450 nm under setting [10].

As a reminder, the Kd is a measure of binding affinity in units of concentration.
